Reference: patent US20230287143A1 (published 2023)

T1: recombinant human BCMA-ECD-Fc fusion protein (ACRO Biosystems, #BC7-H82F0), biotinylated (human, UniProt Q02223 1-54, biotinylated with EZ-Link Sulfo-NHS-LC-Biotin (sites not given))
T1 construct: extracellular domain; Bought protein; also called biotinylated BCMA
T1 sequence (looked up): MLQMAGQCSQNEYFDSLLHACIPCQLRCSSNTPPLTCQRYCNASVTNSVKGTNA


Tests used:
[1] = molecular target: T1, recombinant human BCMA-ECD-Fc fusion …; assay: BLI (Octet Red96e), biotinylated BCMA-ECD-Fc on SA sensor, binding protein 10-2.5 nM in solution, 1:1 global fitting
Description: In this example, the binding kinetics between the BCMA binding protein and BCMA were analyzed by the Biolayer Interferometry (BLI) technique using an Octet molecular interaction analyzer (ForteBio, Octet Red96e).
Two columns of SA sensors (8 sensors in each column; with the sensors in the first column referred to as the reference SA sensor and the sensors in the second column referred to as the test SA sensor) were firstly equilibrated in the equilibration buffer for 10 min. Then, the biotinylated BCMA were captured by test SA sensors with a capture height of 0.2 nm, and the reference SA sensors were immersed in the buffer for 30 s. The two arrays of sensors were combined with the test BCMA-binding protein at concentrations obtained by a two-fold dilution from 10 nM to 2.5 nM and a concentration of 0 nM. The sensors were combined with the test proteins for 180 s and then dissociated for 800 s.
When data analysis was performed using Octet Data Analysis software (Fortebio, version 11.0), the reference signals were subtracted by a double reference mode; the data were fitted by a “1:1 Global fitting” method, and the kinetic parameters of the binding of the antigen to the antigen-binding protein were calculated to obtain kₒₙ (1/Ms) values, kdis (1/s) values and KD (M) values.

[2] = molecular target: T2, human CTLA4 (human, UniProt P16410 36-223); assay: flow cytometry on CHO-K1/hCTLA4 cells
T2 construct: whole, on cells; also called CD152; CHO-K1/hCTLA4
T2 sequence (P16410 36-223): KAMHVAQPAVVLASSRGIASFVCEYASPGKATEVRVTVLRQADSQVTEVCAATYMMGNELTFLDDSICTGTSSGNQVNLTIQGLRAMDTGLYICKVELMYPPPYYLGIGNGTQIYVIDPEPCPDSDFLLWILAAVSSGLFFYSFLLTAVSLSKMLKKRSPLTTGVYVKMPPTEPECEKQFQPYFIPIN
Description: (§1) The cells were incubated at 4° C. for 1 h away from light. […] Then, the cells in each well were then rinsed twice with 200 μL of pre-cooled FACS buffer and centrifuged at 500 g at 4° C. for 5 min, and then the supernatant was discarded. Finally, a pre-cooled FACS buffer was added at 200 μL/well to resuspend the cells.

[3] = molecular target: T3, human PD-L1 (human, UniProt Q9NZQ7 19-290); assay: flow cytometry on CHO-K1/hPD-L1 cells
T3 construct: whole, on cells; also called CD274; B7-H1
T3 sequence (Q9NZQ7 19-290): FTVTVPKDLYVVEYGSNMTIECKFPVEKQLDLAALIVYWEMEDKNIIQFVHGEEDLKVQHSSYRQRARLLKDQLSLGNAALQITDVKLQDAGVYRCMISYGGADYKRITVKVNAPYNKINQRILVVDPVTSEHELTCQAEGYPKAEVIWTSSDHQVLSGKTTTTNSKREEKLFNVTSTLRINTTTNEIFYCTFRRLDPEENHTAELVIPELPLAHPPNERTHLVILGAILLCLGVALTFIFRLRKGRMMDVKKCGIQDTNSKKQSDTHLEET
Description: as §1

[4] = molecular target: T4, human 4-1BB (human, UniProt Q07011 24-255); assay: flow cytometry on CHO-K1/hu 4-1BB cells
T4 construct: whole, on cells; also called CD137; TNFRSF9
T4 sequence (Q07011 24-255): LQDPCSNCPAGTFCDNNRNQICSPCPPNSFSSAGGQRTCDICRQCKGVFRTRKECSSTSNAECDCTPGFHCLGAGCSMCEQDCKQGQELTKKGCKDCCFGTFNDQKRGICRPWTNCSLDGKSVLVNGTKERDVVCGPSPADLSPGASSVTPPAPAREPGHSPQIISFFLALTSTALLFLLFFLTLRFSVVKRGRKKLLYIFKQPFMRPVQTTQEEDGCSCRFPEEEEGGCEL
Description: as §1, with “Specifically, the cells were digested and resuspended in a complete medium, and the cell density was adjusted to 2×10⁶ cells/mL. […] The cells” for “The cells”

Row | Kd [1] | koff [1] | kon [1] | binding result [3] | Binder | also measured
1 | 0.0279 nM | 4.87e-05 s⁻¹ | 1.75e+06 M⁻¹ s⁻¹ | – | PR005744, BCMA×BCMA bispecific binding protein with the Fab-HCAb structure (structure 1) (bispecific antibody, human IgG1, kappa, no first linker; human IgG1 hinge and Fc) chain 1: QVQLVESGGGVVQPGRSLRLSCAATGFTFSSYGMYWVRQAPGKGLEWVAAIWNDGSNNYYADSVKGRFTISRDDSKNTLNLQMNSLRAEDTAMYYCARDRLPMASLRYFDWLGVMDAWGQGTSVTVSSASTKGPSVFPLAPSSKSTSGGTAALGCLVKDYFPEPVTVSWNSGALTSGVHTFPAVLQSSGLYSLSSVVTVPSSSLGTQTYICNVNHKPSNTKVDKKVEPKSC chain 2: not shown | –
2 | 0.0792 nM | 7.16e-05 s⁻¹ | 904000 M⁻¹ s⁻¹ | – | Anti-BCMA heavy-chain antibody PR001046_R2_4G10 (antibody, human IgG1, V domains shown, Fully human heavy-chain-only antibody (HCAb), bivalent, no light chain; also called PR004433) VH: EVQLVETGGGLIQPGGSLRLSCAASGFTVSDSYMTWVRQAPGKGLEWVSVIFSGGRTYYSDSVKGRFTISRDNAKNTLYLQMNSLRAEDTALYYCARRNYDDTRGTDVFDIWGQGTMVTVSS | –

The remaining lines, values behind:

Row | Binder | Kd [1] | koff [1] | kon [1] | binding result [3] | also measured
3 | Anti-CTLA4 heavy-chain antibody CL5v3 (antibody, human IgG1, V domains shown, Fully human heavy-chain-only antibody (HCAb), no light chain; also called PR000184) VH: EVQLVESGGGLIQPGGSLRLSCAVSGFTVSKNYMSWVRQAPGKGLEWVSVVYSGGSKTYADSVKGRFTISRDNSKNTLYLQMNSLRAEDTAVYYCARAVPHSPSSFDIWGQGTMVTVSS | – | – | – | – | binding result [2]: binds
4 | PR004268, PD-L1×4-1BB bispecific binding protein with the VH-IgG structure (structure 4) (bispecific antibody, 4-1BB VH (PR001760) at the N-terminus of the heavy chain of PD-L1 IgG (PR000265); linker GS_15; human IgG1 (LALA)) light: DIQMTQSPSTLSASVGDRVTVTCRASQSIYIWLAWYQQKPGKAPNLLIYKASSLETGVPSRFSGSGSGTEFTLTISSLQPDDFATYYCQQYYGSSRTFGQGTKVEIKRTVAAPSVFIFPPSDEQLKSGTASVVCLLNNFYPREAKVQWKVDNALQSGNSQESVTEQDSKDSTYSLSSTLTLSKADYEKHKVYACEVTHQGLSSPVTKSFNRGEC heavy: not shown | – | – | – | binds | –
5 | PR000701, PD-L1×4-1BB bispecific binding protein with the FIT-Ig structure (structure 5) (bispecific antibody, human IgG4 S228P, kappa, FIT-Ig, symmetric tetravalent, three different chains; PD-L1 Fab of PR000265, 4-1BB Fab of PR000197 close to Fc; human IgG4) chain 1: not shown chain 2: EVQLVESGGGLVQPGGSLRLSCAASGFTFSSYWMSWVRQAPGKGLEWVANIKQEGSEKYYVDSVKGRFTISRDNAKNSLYLQMNSLRAEDTAVYYCARDRAVAGAFDIWGQGTMVTVSSASTKGPSVFPLAPSSKSTSGGTAALGCLVKDYFPEPVTVSWNSGALTSGVHTFPAVLQSSGLYSLSSVVTVPSSSLGTQTYICNVNHKPSNTKVDKKVEPKSC light: not shown | – | – | – | binds | binding result [4]: binds
